The text below walks through data of US20190263876A1 (published 2019).

Assay [1] has as its target T1, Activin A (UniProt P08476).
T1 sequence (looked up): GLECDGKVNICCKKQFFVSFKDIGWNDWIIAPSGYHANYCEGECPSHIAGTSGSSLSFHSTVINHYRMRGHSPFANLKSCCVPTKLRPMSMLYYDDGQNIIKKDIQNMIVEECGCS
In words: cell-based or functional assay.

Assay [2] has as its target T2, GDF11 (UniProt O95390 299-407).
T2 construct: also called Growth and Differentiation Factor-11; BMP11
T2 sequence (looked up): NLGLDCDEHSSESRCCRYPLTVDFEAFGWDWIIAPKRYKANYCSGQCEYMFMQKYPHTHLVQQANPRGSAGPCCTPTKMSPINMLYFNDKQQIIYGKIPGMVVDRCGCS
Description: cell-based or functional assay.

The target in assay [3] is T1, Activin A. In words: cell-based or functional assay. The source holds these as a separate data set.
For assay [4], the target named is T2, GDF11. Description: cell-based or functional assay. The source holds these as a separate data set.
Assay [5] deals with T2, GDF11. Description: BiaCore; ligand coupled to the device, receptor flowed. For orientation: In SPR one partner is held on a chip, and binding of the other changes the refractive index at the surface.

Like-named read-outs stand apart in the source and are kept apart here.

B1: ActRIIB(22-131)-hFc (Fc fusion, not shown: a dimerising Fc or GST)
chain: GEAETRECIYYNANWELERTNQSGLERCEGEQDKRLHCYASWRNSSGTIELVKKGCWLDDFNCYDRQECVATEENPQVYFCCCEGNFCNERFTHLPEAGGPEVTYEPPPT
B1 yielded an IC50 (ng/mL), Activin, reporter assay, conditioned media with Activin A [1] of 100 ng/mL. The molecule also came in with an IC50 (ng/mL), GDF-11, reporter assay, conditioned media in the assay with GDF11 [2] of 71 ng/mL.

B2: ActRIIB(20-132)-hFc (Fc fusion, not shown: a dimerising Fc or GST)
chain: GRGEAETRECIYYNANWELERTNQSGLERCEGEQDKRLHCYASWRNSSGTIELVKKGCWLDDFNCYDRQECVATEENPQVYFCCCEGNFCNERFTHLPEAGGPEVTYEPPPTA
For the molecule B2, the IC50 (ng/mL), Activin, reporter assay, conditioned media with Activin A [3] was determined as 32 ng/mL. The IC50 (ng/mL), GDF-11, reporter assay, conditioned media with GDF11 [4] amounted to 87 ng/mL.

B3: ActRIIB(24-131)-hFc (Fc fusion, not shown: a dimerising Fc or GST)
chain: AETRECIYYNANWELERTNQSGLERCEGEQDKRLHCYASWRNSSGTIELVKKGCWLDDFNCYDRQECVATEENPQVYFCCCEGNFCNERFTHLPEAGGPEVTYEPPPT
The molecule B3 returned an IC50 (ng/mL), Activin, reporter assay, conditioned media in the assay with Activin A [1] of 105 ng/mL. The molecule further yielded an IC50 (ng/mL), GDF-11, reporter assay, conditioned media with GDF11 [2] of 69 ng/mL.

B4: ActRIIB(20-131)-hFc (Fc fusion, not shown: a dimerising Fc or GST)
chain: GRGEAETRECIYYNANWELERTNQSGLERCEGEQDKRLHCYASWRNSSGTIELVKKGCWLDDFNCYDRQECVATEENPQVYFCCCEGNFCNERFTHLPEAGGPEVTYEPPPT
On to B4, for which the values for the IC50 (ng/mL), Activin, reporter assay, conditioned media with Activin A [1] and in the assay with Activin A [3] were 201 ng/mL and 44 ng/mL, respectively. The IC50 (ng/mL), GDF-11, reporter assay, conditioned media stood at 183 ng/mL with GDF11 [2] and 120 ng/mL with GDF11 [4].

B5: ActRIIB-Fc A64 20-134 (Fc fusion, not shown: a dimerising Fc or GST)
chain: GRGEAETRECIYYNANWELERTNQSGLERCEGEQDKRLHCYASWANSSGTIELVKKGCWLDDFNCYDRQECVATEENPQVYFCCCEGNFCNERFTHLPEAGGPEVTYEPPPTAPT
The molecule B5 came in with an Activin Inhibition Activity, cell-based assay (KI) with Activin A [3] of 1000 nM. The same molecule returned a GDF11 Inhibition Activity, cell-based assay (KI) with GDF11 [4] of 1000 nM.

B6: ActRIIB(21-131)-hFc (Fc fusion, not shown: a dimerising Fc or GST)
chain: RGEAETRECIYYNANWELERTNQSGLERCEGEQDKRLHCYASWRNSSGTIELVKKGCWLDDFNCYDRQECVATEENPQVYFCCCEGNFCNERFTHLPEAGGPEVTYEPPPT
For the molecule B6, in the assay with Activin A [1], the IC50 (ng/mL), Activin, reporter assay, conditioned media came out at 325 ng/mL. Besides, in the assay with GDF11 [2], the IC50 (ng/mL), GDF-11, reporter assay, conditioned media was determined as 121 ng/mL.

B7: ActRIIB(23-131)-hFc (Fc fusion, not shown: a dimerising Fc or GST)
chain: EAETRECIYYNANWELERTNQSGLERCEGEQDKRLHCYASWRNSSGTIELVKKGCWLDDFNCYDRQECVATEENPQVYFCCCEGNFCNERFTHLPEAGGPEVTYEPPPT
B7: in the assay with Activin A [1], the IC50 (ng/mL), Activin, reporter assay, conditioned media came to 43 ng/mL. The molecule also registered an IC50 (ng/mL), GDF-11, reporter assay, conditioned media with GDF11 [2] of 60 ng/mL.

B8: Soluble ActRIIB-Fc +15tail (Fc fusion, not shown: a dimerising Fc or GST)
chain: SGRGEAETRECIYYNANWELERTNQSGLERCEGEQDKRLHCYASWANSSGTIELVKKGCWLDDFNCYDRQECVATEENPQVYFCCCEGNFCNERFTHLPEAGGPEVTYEPPPTAPT
By Kd is commonly meant the concentration at which binding is half-saturated. Low values mean higher affinity, high ones lower affinity. In the case of B8, the Kd with GDF11 [5] was 19 nM.

B9: ActRIIB(20-128)-hFc (Fc fusion, not shown: a dimerising Fc or GST)
chain: GRGEAETRECIYYNANWELERTNQSGLERCEGEQDKRLHCYASWRNSSGTIELVKKGCWLDDFNCYDRQECVATEENPQVYFCCCEGNFCNERFTHLPEAGGPEVTYEP
In the assay with Activin A [3], B9 came in with an IC50 (ng/mL), Activin, reporter assay, conditioned media of 158 ng/mL. The IC50 (ng/mL), GDF-11, reporter assay, conditioned media with GDF11 [4] was determined as 130 ng/mL.
